Results taken from publication PMC5707411.

Molecular target: full-length RSV F A2 DS-Cav1 K201N (A-chimera construct) (respiratory syncytial virus subtype A, strain A2)

B1: 5C4 IgG (antibody, V domains shown)
VH: EVQLQQSGAELVKPGASVKLSCTASGFNIKDTFFHWVKQRPEQGLEWIGRIDPADGHTKYDPKFQGKATITADTSSNTAFLQLSSLTSVDTAVYYCATTITAVVPTPYNAMDYWGQGTSVTVSS
VL: DIVLTQSPASLAVSLGQRTTISCRASESVDSFDNSFIHWYQQKPGQPPKLLIFLASSLESGVPARFSGSGSRTDFTLTIDPVEADDAATYYCQQSNEDPFTFGSGTKLEIK
Which EC50 of 5C4 neutralisation of mKate-RSV A2 K201N-mutated virus on HEp-2 cells (viral F without DS-Cav1; antibody format not given) does the source give for B1 here?
Its EC50 of 5C4 neutralisation of mKate-RSV A2 K201N-mutated virus on HEp-2 cells (viral F without DS-Cav1; antibody format not given) is 0.41 µg/mL.
